Results: a protein production outcome set (Wang et al. 2014)

Assay: label from the status in PepcDB records

MFQRKTLQRRNLKGLNLNLHPDVGNNGQLQEKTETHQGQSRIEGHVMSNINAIQNNSNLFLRRGIKKKLTLDAFGDDQAISKPNTVVIQQPQNEPVLVLSSLSQSPCVSSSSSLSTPCIIDAYSNNFGLSPSSTNSTPSTIQGLSNIATPVENEHSISLPPLEESLSPAAADLKDTLSGTSNGNYIQLQDLVQLGKIGAGNSGTVVKALHVPDSKIVAKKTIPVEQNNSTIINQLVRELSIVKNVKPHENIITFYGAYYNQHINNEIIILMEYSDCGSLDKILSVYKRFVQRGTVSSKKTWFNELTISKIAYGVLNGLDHLYRQYKIIHRDIKPSNVLINSKGQIKLCDFGVSKKLINSIADTFVGTSTYMSPERIQGNVYSIKGDVWSLGLMIIELVTGEFPLGGHNDTPDGILDLLQRIVNEPSPRLPKDRIYSKEMTDFVNRCCIKNERERSSIHELLHHDLIMKYVSPSKDDKFRHWCRKIKSKIKEDKRIKREALDRAKLEKKQSERSTH
protein production: failed

MFRDFRMSLLVAVICLGLAAWWGHTSSMGIWQALWLCLVLSVLEVSLSFDNAVVNAGVLKHMNAFWQKLFLTVGILIAVFGMRLVFPIVIVSVATGMGLVPVMQMALKEPDRYSQVLTDNYPSIAAFGGMFLLLVFLNFLFDQERKLHWLGPVERLVGKLGKADAMSVIVAVSVLLGTKLFLPDGIFQSVLFAGLGGILLYLLVGSVDALFEAEESEDGSMGPAKRSGIAAFLYLEVLDASFSFDGVIGAFAITRDVVIIMLGLAIGAMFVRSMTVYLVHKGTLDEFVFLEHGAHYAIGVLAIIMLVGTVYHVPEVLTGLIGVAFIAASVWSSIRYRKRHHIGPTEI
protein production: failed

MFRIKQLAWAMGCVSLMSGCTLYPWYQNKAGQAVNVKPVMEVRHAIRSADALYQLGRYYQAKVDYAEAIAAYEKALEADPRHVEAHNGLGVAHCLLDRHELALQYFRKAIGMAPLAAHLHNNLGYAHLVHGQEAEAVSAFERALLLEPHNQRARRHLAAVYKKAGLHDKAAALTVAPSGAPVGATKAPPTAPIPTPAPGTPAGTPAGIPSAAISAISPPMAAAPGEKQKLSCSAAARLLQVTPGVFEFRMAETEAMTAMPSGKIIGRTAPPQDSGKFSGQDIRIEVSNGNGLPGMARQVSDFLQQNGFARARLTDRQPYQQALTEIHYRPGHSGVAEEISRLMPGGSGVPTVESYNLRRDIHVRVMLGKDAVRQVAHLESPQKVQIAQGTAGAVE
protein production: failed

MFRPQDDFTYLMPVHFGGGKFDPETLVTQKATALSLSFETERDLLENYIPEGFELLAPEVQVAFNKFTEINWLHGGQYNLINVAAPVRFHGKKDELDGAYTLVVWENKTAPILGGREQTGIPKIYADIEDLHIVRPHFATTVSYEGNTFLNMDFEATGSITGRDLDALKSQFLTMNTLGWRYIPKVGAPGAELSQFVLYPQGMEVETAEVGKGSLKWTELTPMQSPAQYYIVNSLASLPIKRVTQAVLVEGRAILRAMGARVIE
protein production: not failed

MFRQLKKNLVATLIAAMTIGQVAPAFADSADTLPDMGTSAGSTLSIGQEMQMGDYYVRQLRGSAPLINDPLLTQYINSLGMRLVSHANSVKTPFHFFLINNDEINAFAFFGGNVVLHSALFRYSDNESQLASVMAHEISHVTQRHLARAMEDQQRSAPLTWVGALGSILLAMASPQAGMAALTGTLAGTRQGMISFTQQNEQEADRIGIQVLQRSGFDPQAMPTFLEKLLDQARYSSRPPEILLTHPLPESRLADARNRANQMRPMVVQSSEDFYLAKARTLGMYNSGRNQLTSDLLDEWAKGNVRQQRAAQYGRALQAMEANKYDEARKTLQPLLAAEPGNAWYLDLATDIDLGQNKANEAINRLKNARDLRTNPVLQLNLANAYLQGGQPQEAANILNRYTFNNKDDSNGWDLLAQAEAALNNRDQELAARAEGYALAGRLDQAISLLSSASSQVKLGSLQQARYDARIDQLRQLQERFKPYTKMLEHHHHHH
protein production: not failed

MFSFLEKNPFFFTLAFIFVFAIAGLVEILPNFFKSARPIEGLRPYTVLETAGRQIYIQEGCYHCHSQLIRPFQAEVDRYGAYSLSGEYAYDRPFLWGSKRIGPDLHRVGDYRTTDWHEKHMFDPKSVVPHSIMPAYKHLFTKKSDFDTAYAEALTQKKVFGVPYDTENGVKLGSVEEAKKAYLEEAKKITADMKDKRVLEAIERGEVLEIVALIAYLNSLGNSRINANQNAK
protein production: failed

MFSFVQMTGCLLPLTALTPLSHCTRPRNALALLQSSWKGGSLAISLVRNAVAAVLAAALSVPVSADVGAGSYLAARQAVFANDFSSAADYFARALAIDPQNPALMENMVLSQLALGRLEQAYPVAQLMQEAGLQSQVANIAIVVHLLSEERYQEVLDRDPEMRGVGKLVDGLVAGWAEMGLGSVARALAQFDKVADEAGLRGFANYHKAMALASVGDFEGAEALFAADDGALTTISRRAALARAEILSQLDRNDQALEMLADVFSGGFDPALSDIADRLVAGETLPFSLVRSVRDGLAEVFFTIGAALNGEASDDFTLVYIRSAVHLRPDHIDALLMTAGLLESLGQYDLAVATYKQIPNDSPDYHAAELGRAEALRRSAKPDAAIEVLEKLAKDYPSQPQAFVALGDLQRQQEAYDRAATAYDKALQLTDPGAPNMWFLHYARGICHERLGNWPGAEADFRAALELNPDQPQVLNYLGYSLVEKQEKLDEALDLIERAVAARPDSGYIVDSLGWVLFRLGRYDEAVGHMERAVELMPVDPVVNDHLGDVLWAVGRVREAEFQWRRALSFIKADDTDGEADPERIRRKLEIGLDRVLAEEGVPPLKVANGD
protein production: failed

MFSIIIPIYNSENYLRYSIESVLNQSIGFKENIELILIDDGSVDSSPQICESFKNLYPNNIKIMKIENSGPSAARNCGLSNVSERSKFIGFLDSDDAFSQNALQSVYDFFCDSEHVNIAVLPVYYTGEKEGGHKLNNRFEKGTRVINILNDYKAIHFYIGGTFYRRHTLTSTVLFDESIKFWEDAIFFNQLLLKEKRYGAVAEGKYFYRKRKEQDSLVDRSWFNKKRYTYLLNECYMTLLMDSFNKYDIVLPYLQFLIVYHIKLFLYPNYRDVYKSVLDQQEQRVFVDDFIKVLKFIDPQFIKEQDMPMYYKEFMFHLLKENTEALENIKKERVLHSSCTVTSAKIKGLRLELTGHFINQYYEMKENDRIYIKYFKRLKKCKRKELKKTIEVWGYKLRDFRYAGFVVEIPIWAFAFDFVLKTPNDSLELNHVNIFKSLLTRVFKKRLEHHHHHH
protein production: not failed

MFSKIFKSFFYSWLATLFSTSLILCICFGNSHPVAIVNAQTPDAYKLVNQGIESYKKGDFHAAIKPWEAALDSYQKNNDFRNIAIINENLARTYQQLGNKSLTLSYWEKVKDYYHSQKNLQKVGRILTEIAQIYSNSGQTKKSYQSFMWCKYINLSNRECITNCPGTTR
protein production: failed

MFSLSTQTMSAVAQRHPQTPISTITASNRQSSLHFKINSNNPEAHAQMRSGDEKGAIASITIEFQSVEQLHLHLGIMHLLSGDMKGAIEDFNQAILINPNYAEAYKGRGVAKVQLGDEKEAIEDLQKAADIFQEQEETAKYQEVINIIRQINDK
protein production: failed

MFTGFGAASFSAPAKAAAQTNTLSENTNQSAAELVKNLYNTAYKGEMPQQAQGLTINKSTKGDVHAAFGEPERPVGGDNRFDLYHWNMGQPGYGFSYHKDMTISEIRYFGTGVERQLNLGGVTPEVLQKQLGPVNRVLTVPFTDEIDYVYDTGRYELHFVIGTDQTADHVNLKAKLEHHHHHH
protein production: not failed

MFTNSGVFIMYKILEKKEIAMRNTWYKIYAPHVAKKVQPGQFVIVRAFPNGERIPLTPIMWDREEGWIVLVAFTKGKTTMKMAMELKEGDEILNVAGPLGNPAPMEKFGKILAIGAYVGIAEVYPIAKAWQEIGNDVTTLHVTFEPMVILKDYFEKAVSRHIVEPVKIDQEKSFQENTKNVTKALTAKVKELLDNENWDLVFMVGPPGDQKAVFEVVKKYGIPMKVDLHPIMVDGTGMCGACRVTVGGEVKFACVDGPEFDAYLVDWDELIHRVGFYSKLEKLALEKYMEELKAKGVI
protein production: failed

MFVGHLPGAYLIFRVVTPRIERMAFTAAMLGAIAPDLDMLRFYFVDGRAFHHHEYLTHRPILWTGLLLCGVLIGMRSRRIGVPLAFFGAGGLVHMLLDSIAGKIAWAWPVSDFAAPLVVVPATQSHWILSFLSHWTFAVELGITVLALVLWRWLPRRATARR
protein production: failed

MFWTELCFILVALMIGARIGGVFLGMVGGLGVGVMVFIFGLTPSTPPIDVILIILSVVLAAASLQASGGLDLLVKLAEKILRRHPRYITLLAPFICYIFTFMSGTGHVVYSLLPVISEVARDSGIRPERPLSISVIASQQAITASPISAAMAAMIGLMAPLGVSISTIMMICVPATLIGVAMGAIATFNKGKELKDDPEYQRRLAEGLIKPAQKESKNTVVTSRAKLSVALFLTSAIVIVLLGLIPALRPMVETAKGLQPLSMSAAIQITMLSFACLIVLLCRPQVDQIISGTVFRAGALAIVCAFGLAWMSETFVNGHIALIKAEVQTLLQQHTWLIAIMMFFVSAMVSSQAATTLILLPLGLALGLPAYALIGSWPAVNGYFFIPVAGQCLAALAFDDTGTTRIGKYVLNHSFMRPGLVNVIVSVIVGLLIGKMVLA
protein production: failed

MFYTTKSSMNQHNIFFGSSHVVVPVTKPFPFSLDGHVEDEDNLESQYLQWLEERVDENNNINDDQSVGERDVGDDDIDRLADKFIARCHEKFLLEKVESYRRFQDMLARSL
protein production: failed

MGAAAAPEVNMELVGHFGGTTDAVDVAGNYAYVGQGQDFLILDITNPSSPVLVSKIMTEGFVRDIKVSRNYAYVADDDNGLVIVDISNPSSPTLKGSYNIPGYTYCITVSGNYAYVADNDGLVIVDISNPSDPILKGRYAGPTGDVAVYGNYAYVADWGNGLMIVDISNPSSPVLKGSYDTAGDIYGVSISGNYAYVADGDTGLVIVDISNPSSPTLKGNYNTAGIACDVSVLGNYAYVADNDNGLVIVDISDPSSPVLKGNGSTTGYAHGIEVSGNYAYVANSNTGLVIVDISNPSSPTLKGSCDTIVRAKSIAVSGNYAYIADWDNGLVIVDISNPSSPFLKGSCDTPRSAQGVAVSGNYAYVADDDGLVIVDISNPSFPILNKSYNTGGWAQGITVSGNYAYVIDMANGIFIVDISNPSSPILEGMYDTSPIIIENYDYTGSIWSVSVSGNYAYVADEGNGLLIVDISNPSSPILKGSYDTAGLAYDVAVSGNYAYVADSKNGLAIIDISNPSSPILVGNYNTSGYAECVSISGNYAYVAVDDSLVVVDISNPSSPILKGLYAGSAGDIAVSGNYVYASEGVNGLVILKANPESAFTVADFSSNITSGYAPLSIQFNDHSQNATSWNWDFGDGYNSTNQNPIHTYSSAGTYTVNLTVINENRTASKVAKIFVLNTSLEHHHHHH
protein production: failed

MGAAKPIFVEHSIVIDRPAQQVYDYWRKLENLPQIMSHLESVTVLDDKRSRWVAKAPLGTHVEWEAEVVNDKPGERIGWHSLPGATVDNAGSVQFESLPDDKTRVHVALSYRPPAGPLGAAVAKLFGEEPSQQIAEDLQKFKATFEGLEHHHHHH
protein production: failed

MGAGSQTTGAGQKKVQTITVGTGTQFPNICFIDEKGDLTGYDVELIKELDKRLPHYKFTFKTMEFSNLLVSLGQHKVDIVAHQMEKSKEREKKFLFNKVAYNHFPLKITVLQNNDTIRGIEDLKGKRVITSATSNGALVLKKWNEDNGRPFEIAYEGQGANETANQLKSGRADATISTPFAVDFQNKTSTIKEKTVGNVLSNAKVYFMFNKNEQTLSDDIDKALQEIIDDGTLKRLSLKWLGDDYSKEQYLEHHHHHH
protein production: not failed

MGANLNSAYAAGVKIAIVMGSKSDWATMQFAADVLTTLNVPFHVEVVSAHRTPDRLFSFAEQAEANGLHVIIAGAGGAAHLPGMLAAKTLVPVLGVPVQSAALSGVDSLYSIVQMPRGIPVGTLAIGKAGAANAALLAAQILALHDTELAGRLAHWRQSQTDDVLDNPDPREEA
protein production: not failed

MGAVVVKDLRKRIGKKEILKGISFEIEEGEIFGLIGPNGAGKTTTLRIISTLIKPSSGIVTVFGKNVVEEPHEVRKLISYLPEEAGAYRNMQGIEYLRFVAGFYASSSSEIEEMVERATEIAGLGEKIKDRVSTYSKGMVRKLLIARALMVNPRLAILDEPTSGLDVLNAREVRKILKQASQEGLTILVSSHNMLEVEFLCDRIALIHNGTIVETGTVEELKERYKAQNIEEVFEEVVKCSENF
protein production: not failed
